No end group written: not given here.

The target in one experiment is NF-κB Essential Modulator (NEMO), full-length recombinant human protein (residues 2–419) with five cysteine-to-alanine substitutions (human) (UniProt Q9Y6K9). The experiment can be described thus: fluorescence polarisation.
Conditions: not given
Regarding “cleaved IKKβ peptide D738A (from UniProt O14920 701-745)”, the dissociation constant (Kd) came out at 11 µM.

With “cleaved IKKβ peptide W739A (from UniProt O14920 701-745)”, the Kd was found to be 35 µM.

Regarding “cleaved IKKβ peptide L708A (from UniProt O14920 701-745)”, the equilibrium dissociation constant (Kd) was determined as 2.7 µM.

For the substance “MBP-IKKβ-His(C716S) W741A (from UniProt O14920 701-745) (domain or fragment)”, the Kd is > 0.87 µM.

With “cleaved IKKβ peptide L742A (from UniProt O14920 701-745)”, the Kd was 5.5 µM.

On to “WT MBP-IKKβ-His (from UniProt O14920 701-745) (domain or fragment)”, for which the Kd worked out at 0.015 µM.

Turning to “cleaved IKKβ peptide L719A (from UniProt O14920 701-745)”, the Kd was 21 µM.

For the substance “MBP-IKKβ-His(C716S) W739A (from UniProt O14920 701-745) (domain or fragment)”, the Kd is > 0.87 µM.

Turning to “MBP-IKKβ-His(C716S) L719A (from UniProt O14920 701-745) (domain or fragment)”, the dissociation constant Kd is > 0.87 µM.

“MBP-IKKβ-His(C716S) L708A (from UniProt O14920 701-745) (domain or fragment)”: the dissociation constant Kd is > 0.87 µM.

Consider “MBP-IKKβ-His(C716S) D738A (from UniProt O14920 701-745) (domain or fragment)”, for which the Kd was > 0.87 µM.

For the substance “cleaved IKKβ peptide W741A (from UniProt O14920 701-745)”, the Kd was 9.3 µM.

Take “MBP-IKKβ-His(C716S) L742A (from UniProt O14920 701-745) (domain or fragment)”: the Kd is > 0.87 µM.

Another experiment addresses full-length recombinant human NEMO (Homo sapiens, UniProt Q9Y6K9, C11A/C131A/C167A/C76A/C95A). The experiment can be described thus: Fluorescence anisotropy. The note with it: KD2 competition assay vs KD1 direct binding assay.
Regarding “PAKKSEELVAEAHNLCTLLENAIQDTVREQDQSFTALDWSWLQTE [IKKβ(701–745)]”, the “KD2 of unlabeled peptide relative to KD1 of FITC-IKKβ” value is listed as ~ 4 fold.
